From patent US20190071480A1 (Biogen, published 2019)
Residue numbers refer to the chain shown, from its start. Bridges are numbered along the chain shown (N, C = ends).

Tests used:
[1] = target: T1, extracellular domain of activin receptor type IIB (ActRIIBecd), biotinylated (Homo sapiens (Human), UniProt Q13705 27-117, amino-biotinylated with amine-PEG3-Biotin); assay: Mean KD column of Table 5; method not restated (BIAcore as Example 5); species also listed in Table 4
T1 construct: immobilised on a streptavidin-coated sensor chip; also called biotinylated ActRIIBecd; extracellular domain of ActRIIB
T1 sequence: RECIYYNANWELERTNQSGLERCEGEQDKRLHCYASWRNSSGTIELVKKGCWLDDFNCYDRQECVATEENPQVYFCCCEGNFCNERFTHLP
Method: (§1) Biosensor experiments. In one embodiment, experiments were performed on a BIAcore™ T100/T200 instrument (Pharmacia Biosensor AB) in the multichannel mode (serial flow path involving flow cells 1+2+3+4). Flow rate was 10 μl/min; temperature was 25° C.; and data were recorded at 2.5 points/s. All four segments of a sensor chip CMS were coated with streptavidin (Sigma) to a density of 2000 pg/mm² (2000 resonance units) by the aminocoupling procedure. ActRIIBecd (10 mg) and amine-PEG3-Biotin (10 mg, Pierce, Rockford, Ill.) were dissolved in 200 μl H₂O and 10 mg NaCNBH₃ was added to prepare biotinylated ActRIIBecd. The reaction mixture was heated at 70° C. for 24 h, after that a further 10 mg NaCNBH₃ was added and the reaction was heated at 70° C. for another 24 h. After cooling to room temperature, the mixture was desalted with the spin column (3,000 molecular weight cut off (MWCO)). Biotinylated ActRIIBecd was collected, freeze-dried and used for streptavidin (SA) chip preparation. Amino-biotinylated ActRIIBecd was then immobilized independently on flow cells 2-4 for 10 minutes at a flow rate of 5 μL/min and a concentration of 20 μM in 10 mM sodium acetate, pH 4.0, at a density of 50-250 resonance units (RU). The stored polypeptides were dissolved in glycine buffer (2.5 g of glycine, 0.5 g of sucrose, 370 mg of L-glutamate, 10 mg of sodium chloride, and 10 mg of Tween 80 in 100 mL water, pH 4.5) to prepare 10 mg/mL solution and then diluted with previous glycine buffer to prepare analytes with various concentration. Sensograms were recorded during flow of the analyte (the ActRIIBecd-associated polypeptides (i.e., domains) as previously described) first through flow cell 1 (control) then through flow cell 2 (biotinylated ActRIIBecd). The sensogram obtained for flow cell 1 was subtracted from the sensogram obtained for flow cell 2. The sensograms obtained at 1.11, 3.33, 10, 30, and 90 nM analyte were evaluated for equilibrium binding, association rate, and dissociation rate by using the programs supplied with the instrument (BIA evaluation 2.1; Software Handbook. 1995; Pharmacia Biosensor AB).

[2] = target: T1, extracellular domain of activin …; assay: BIAcore SPR as Example 5 (method not restated); SD ±3.15 nM
Method: as §1, with “Biotinylated ActRIIBecd was collected, freeze-dried and used for streptavidin (SA) chip preparation. Amino-biotinylated ActRIIBecd was then immobilized independently on flow cells 2-4 for 10 minutes at a flow rate of 5 μL/min and a concentration of 20 μM in 10 mM sodium acetate, pH 4.0, at a density of 50-250 resonance units (RU). The stored polypeptides were dissolved in glycine buffer (2.5 g of glycine, 0.5 g of sucrose, 370 mg of L-glutamate, 10 mg of sodium chloride, and 10 mg of Tween 80 in 100 mL water, pH 4.5) to prepare 10 mg/mL solution and then diluted with previous glycine buffer to prepare analytes with various concentration.” left out, “The sensogram obtained for flow cell 1 was subtracted from the sensogram obtained for flow cell 2.” left out

[3] = target: T1, extracellular domain of activin …; assay: BIAcore SPR as Example 5 (method not restated); SD ±1.74 nM
Method: as §1, with “Biotinylated ActRIIBecd was collected, freeze-dried and used for streptavidin (SA) chip preparation. Amino-biotinylated ActRIIBecd was then immobilized independently on flow cells 2-4 for 10 minutes at a flow rate of 5 μL/min and a concentration of 20 μM in 10 mM sodium acetate, pH 4.0, at a density of 50-250 resonance units (RU). The stored polypeptides were dissolved in glycine buffer (2.5 g of glycine, 0.5 g of sucrose, 370 mg of L-glutamate, 10 mg of sodium chloride, and 10 mg of Tween 80 in 100 mL water, pH 4.5) to prepare 10 mg/mL solution and then diluted with previous glycine buffer to prepare analytes with various concentration.” left out, “The sensogram obtained for flow cell 1 was subtracted from the sensogram obtained for flow cell 2.” left out

[4] = target: T1, extracellular domain of activin …; assay: BIAcore SPR as Example 5 (method not restated); SD ±1.35 nM
Method: as §1, with “Biotinylated ActRIIBecd was collected, freeze-dried and used for streptavidin (SA) chip preparation. Amino-biotinylated ActRIIBecd was then immobilized independently on flow cells 2-4 for 10 minutes at a flow rate of 5 μL/min and a concentration of 20 μM in 10 mM sodium acetate, pH 4.0, at a density of 50-250 resonance units (RU). The stored polypeptides were dissolved in glycine buffer (2.5 g of glycine, 0.5 g of sucrose, 370 mg of L-glutamate, 10 mg of sodium chloride, and 10 mg of Tween 80 in 100 mL water, pH 4.5) to prepare 10 mg/mL solution and then diluted with previous glycine buffer to prepare analytes with various concentration.” left out, “The sensogram obtained for flow cell 1 was subtracted from the sensogram obtained for flow cell 2.” left out

[5] = target: T1, extracellular domain of activin …; assay: BIAcore SPR as Example 5 (method not restated); SD ±1.07 nM
Method: as §1, with “Biotinylated ActRIIBecd was collected, freeze-dried and used for streptavidin (SA) chip preparation. Amino-biotinylated ActRIIBecd was then immobilized independently on flow cells 2-4 for 10 minutes at a flow rate of 5 μL/min and a concentration of 20 μM in 10 mM sodium acetate, pH 4.0, at a density of 50-250 resonance units (RU). The stored polypeptides were dissolved in glycine buffer (2.5 g of glycine, 0.5 g of sucrose, 370 mg of L-glutamate, 10 mg of sodium chloride, and 10 mg of Tween 80 in 100 mL water, pH 4.5) to prepare 10 mg/mL solution and then diluted with previous glycine buffer to prepare analytes with various concentration.” left out, “The sensogram obtained for flow cell 1 was subtracted from the sensogram obtained for flow cell 2.” left out

[6] = target: T1, extracellular domain of activin …; assay: BIAcore SPR, biotinylated ActRIIBecd on chip; SD ±14.11 nM
Method: as §1, with “Biotinylated ActRIIBecd was collected, freeze-dried and used for streptavidin (SA) chip preparation. Amino-biotinylated ActRIIBecd was then immobilized independently on flow cells 2-4 for 10 minutes at a flow rate of 5 μL/min and a concentration of 20 μM in 10 mM sodium acetate, pH 4.0, at a density of 50-250 resonance units (RU). The stored polypeptides were dissolved in glycine buffer (2.5 g of glycine, 0.5 g of sucrose, 370 mg of L-glutamate, 10 mg of sodium chloride, and 10 mg of Tween 80 in 100 mL water, pH 4.5) to prepare 10 mg/mL solution and then diluted with previous glycine buffer to prepare analytes with various concentration.” left out, “The sensogram obtained for flow cell 1 was subtracted from the sensogram obtained for flow cell 2.” left out

[7] = target: T1, extracellular domain of activin …; assay: BIAcore SPR as Example 5 (method not restated); SD ±2.45 nM
Method: as §1, with “Biotinylated ActRIIBecd was collected, freeze-dried and used for streptavidin (SA) chip preparation. Amino-biotinylated ActRIIBecd was then immobilized independently on flow cells 2-4 for 10 minutes at a flow rate of 5 μL/min and a concentration of 20 μM in 10 mM sodium acetate, pH 4.0, at a density of 50-250 resonance units (RU). The stored polypeptides were dissolved in glycine buffer (2.5 g of glycine, 0.5 g of sucrose, 370 mg of L-glutamate, 10 mg of sodium chloride, and 10 mg of Tween 80 in 100 mL water, pH 4.5) to prepare 10 mg/mL solution and then diluted with previous glycine buffer to prepare analytes with various concentration.” left out, “The sensogram obtained for flow cell 1 was subtracted from the sensogram obtained for flow cell 2.” left out

[8] = target: T1, extracellular domain of activin …; assay: BIAcore SPR as Example 5 (method not restated); SD ±1.77 nM
Method: as §1, with “Biotinylated ActRIIBecd was collected, freeze-dried and used for streptavidin (SA) chip preparation. Amino-biotinylated ActRIIBecd was then immobilized independently on flow cells 2-4 for 10 minutes at a flow rate of 5 μL/min and a concentration of 20 μM in 10 mM sodium acetate, pH 4.0, at a density of 50-250 resonance units (RU). The stored polypeptides were dissolved in glycine buffer (2.5 g of glycine, 0.5 g of sucrose, 370 mg of L-glutamate, 10 mg of sodium chloride, and 10 mg of Tween 80 in 100 mL water, pH 4.5) to prepare 10 mg/mL solution and then diluted with previous glycine buffer to prepare analytes with various concentration.” left out, “The sensogram obtained for flow cell 1 was subtracted from the sensogram obtained for flow cell 2.” left out

B1: SEQ ID NO: 242, cysteine pairs C29-C30^a (designed binder)
chain: GQAKRKGYKRLKSSCKRHPLYNSKDPKACCVPTELSAPSPLYLDENEKPVLKNYQDMVVHGCGCR
modifications: disulfide 29-30
[1]
  Kd: 48.7 nM
[2]
  Kd: 48.7 nM

B2: SEQ ID NO: 248, cysteine pairs C67-C71^a, C8-C41^a, C9-C43^a (designed binder)
chain: NSKDPKACCVPTELSAPSPLYLDENEKPVLKNYQDMVVHGCGCRVDFKDVGWNDHAVAPPGYHAFYCHGECPFPLADHLNSDNHAIVQTKVNSV
modifications: disulfides C67-C71 (intra), C8-C41 (intra), C9-C43 (intra)
[1]
  Kd: 18.5 nM
[3]
  Kd: 18.5 nM

B3: SEQ ID NO: 254, cysteine pairs C23-C27^a, C58-C91^a, C59-C93^a (designed binder)
chain: VDFKDVGWNDHAVAPPGYHAFYCHGECPFPLADHLNSDNHAIVQTKVNSVNSKDPKACCVPTELSAPSPLYLDENEKPVLKNYQDMVVHGCGCR
modifications: disulfides C23-C27 (intra), C58-C91 (intra), C59-C93 (intra)
[1]
  Kd: 17.6 nM
[3]
  Kd: 17.6 nM

B4: SEQ ID NO: 260, cysteine pairs C79-C80^a (designed binder)
chain: AQAKHKQRKRLKSSCKRHPLYVDFSDVGWNDWIVAPPGYHAFYCHGECPFPLADHLNSTNHAIVQTLVNSVNSKIPKACCVPTELSAISMLYLDENEKVVLKNYQDMVVEGCGCR
modifications: disulfides C79-C80 (intra)
[1]
  Kd: 29.1 nM
[4]
  Kd: 29.1 nM

B5: SEQ ID NO: 260, cysteine pairs C80-C114^a, C79-C112^a, C44-C48^a (designed binder)
chain: B4 chain
modifications: disulfides C80-C114 (intra), C79-C112 (intra), C44-C48 (intra)
[1]
  Kd: 8.31 nM
[5]
  Kd: 8.31 nM

B6: Clone No. 15 domain (ActRIIBecd-associated polypeptide) (peptide)
chain: VDFSDVGWNDWIVAPPGYHAFYCHGECPFPLADHLNSTNHAIVQTLVNSV
[6]
  Kd: 39.5 nM

B7: SEQ ID NO: 268, cysteine pairs C23-C27^a, C65-C65^b, C79-C114^b, C80-C112^b (designed binder)
chain: VDFSDVGWNDWIVAPPGYHAFYCHGECPFPLADHLNSTNHAIVQTLVNSVAQAKHKQRKRLKSSCKRHPLYNSKIPKACCVPTELSAISMLYLDENEKVVLKNYQDMVVEGCGCR
modifications: disulfides C23-C27 (intra), C65-C65 (inter), C79-C114 (inter), C80-C112 (inter)
notes: homodimer by intermolecular disulfide
[1]
  Kd: 8.03 nM
[7]
  Kd: 8.03 nM

B8: SEQ ID NO: 276, cysteine pairs C67-C71^a, C8-C41^b, C9-C43^b, C109-C109^b (designed binder)
chain: NSKIPKACCVPTELSAISMLYLDENEKVVLKNYQDMVVEGCGCRVDFSDVGWNDWIVAPPGYHAFYCHGECPFPLADHLNSTNHAIVQTLVNSVAQAKHKQRKRLKSSCKRHPLY
modifications: disulfides C67-C71 (intra), C8-C41 (inter), C9-C43 (inter), C109-C109 (inter)
notes: as for B7
[8]
  Kd: 8.13 nM
[1]
  Kd: 8.13 nM

B9: SEQ ID NO: 284, cysteine pairs C8-C9^a (designed binder)
chain: NSKIPKACCVPTELSAISMLYLDENEKVVLKNYQDMVVEGCGCRAQAKHKQRKRLKSSCKRHPLYVDFSDVGWNDWIVAPPGYHAFYCHGECPFPLADHLNSTNHAIVQTLVNSV
modifications: disulfides C8-C9 (intra)
[1]
  Kd: 31.8 nM
[2]
  Kd: 31.8 nM

B10: SEQ ID NO: 284, cysteine pairs C59-C59^b, C8-C43^a, C9-C41^a, C88-C92^a (designed binder)
chain: B9 chain
modifications: disulfides C59-C59 (inter), C8-C43 (intra), C9-C41 (intra), C88-C92 (intra)
notes: as for B7
[1]
  Kd: 6.88 nM
[4]
  Kd: 6.88 nM

B11: SEQ ID NO: 300, cysteine pairs C23-C79^a (designed binder)
chain: VDFKDVGWNDHAVAPPGYHAFYCHGECPFPLADHLNSDNHAIVQTKVNSVGQAKRKGYKRLKSSCKRHPLYNSKDPKACCVPTELSAPSPLYLDENEKPVLKNYQDMVVHGCGCR
modifications: disulfides C23-C79 (intra)
[1]
  Kd: 32.7 nM
[7]
  Kd: 32.7 nM

B12: SEQ ID NO: 324, cysteine pairs C15-C15^b, C80-C114^b, C79-C112^b, C44-C48^a (designed binder)
chain: B4 chain with S25K, W32H, I33A, T59D, L67K
modifications: disulfides C15-C15 (inter), C80-C114 (inter), C79-C112 (inter), C44-C48 (intra)
notes: as for B7
[8]
  Kd: 9.11 nM
[1]
  Kd: 9.11 nM

B13: SEQ ID NO: 348, cysteine pairs C15-C15^b, C29-C62^a, C30-C64^a, C88-C92^a (designed binder)
chain: GQAKRKGYKRLKSSCKRHPLYNSKIPKACCVPTELSAISMLYLDENEKVVLKNYQDMVVEGCGCRVDFSDVGWNDWIVAPPGYHAFYCHGECPFPLADHLNSTNHAIVQTLVNSV
modifications: disulfides C15-C15 (inter), C29-C62 (intra), C30-C64 (intra), C88-C92 (intra)
notes: as for B7
[1]
  Kd: 5.1 nM
[5]
  Kd: 5.1 nM

B14: Clone No. 27 domain (ActRIIBecd-associated polypeptide) (peptide)
chain: TYPASPKPMRWKMRSCACCAGGLRNRTGTV
[6]
  Kd: 49.3 nM
